Measurements published in the RNAGym collection of RNA variant scans (doi:10.1021/acssynbio.7b00057).

B1: Pistol ribozyme (parent)
chain: GGGUCGUUGUUCCAUAAUCGCGUGGAUAUGGCACGCAAGUUUCUACCGGGCACCGUAAAUGUCCGACUGGAGCCGUUCGGGCGGCUAUAAACAGACCUCAGGCCCGAAGCGUGGCGGCACCUGCCGCCGGUGGUAAAAAAGAUCGGAAGAGCACACGUCU

Variants of: B1
Assay: aptazyme ON/OFF ratio, guanine; higher = stronger switching; co-transcriptional cleavage with and without guanine

Variant | aptazyme ON/OFF ratio
U8C G9U U10G U11A C13G | 1.13
U7A U8C G9U U10C C12G | 1.57
U7A U8A G9C U10A U11G C12U C13G | 1.11
U7C U8G U11C C13U | 1.36
U7G U8G G9U U10C C13U | 1.28
U8G G9C U10A C12A C13U | 1.17
U7A G9A U10A U11C C12A C13A | 1.18
U7C U8A G9U U10G C12U C13A | 1.1
U7G U8G G9U U10G U11C C13G | 1.17
U7C U8A G9C U10A U11C C12A C13U | 1.15
U7A U8C G9U U10A U11A C12U C13U | 1.16
G9A U10C U11A C12A C13U | 1.63
U7C U8C G9C U10C C13G | 1.12
U7G U10G U11A C12A C13U | 1.08
U7C U8C U10A U11A C12A C13A | 1.1
U7A U8C G9C U10G U11A C12U | 1.04
U8A G9C U10C U11A C12G C13A | 1.06
U7C U8A U10C U11A C13G | 1.15
U10C C12G C13A | 1.24
U7C U10A C12U C13A | 1.19
U7C U10G U11C C12A C13A | 1.21
U8C G9A U11G C12A | 1.06
U7C U8C G9C U10G C12U C13A | 1.08
U7C U8A G9U U11G C12A C13A | 1.12

Variant | aptazyme ON/OFF ratio
U7G U8A G9A U10A U11A C12G C13A | 1.1
U8A G9C U10A U11C C12A | 1.21
U7G U8A U10G U11A C12G C13A | 1.11
U7C U8C U10A C12G C13U | 1.07
U7G G9C U10C U11G C13A | 1.19
U8G C12U C13A | 1.23
U7A U8A G9C U10A C13A | 1.21
U7G U8A G9C U10A U11A C12U | 1.03
U7C U8C G9C U10C U11G C12U | 1.15
U7C U8C G9U U10A U11C C12G C13A | 1.17
U7C G9U U10C U11C C12U | 1.02
U8A G9C U10C U11G C12U C13A | 1.07
U7G U11A C12A C13A | 1.17
G9A U10A U11C C12A C13A | 1.38
U7C U8C G9A U10A U11G C12A C13U | 1.16
U7C U8G G9A U10G C12G C13G | 1.1
U8A U10A U11C C12G | 1.08
U8A G9A U10C C12G C13G | 1.24
U8A G9U U10C U11G C12A | 1.05
U7A G9C U11A C12A C13G | 1.05
U7C U8A G9U U10C U11C C12A C13G | 1.29
U7G U8G G9A U10A U11A C12G C13U | 1.33
U7G G9U U10G | 3.04
U7A U8G G9U U10C U11G C12A | 1.5

Variant | aptazyme ON/OFF ratio
U8C G9C U11C C12U C13G | 1.02
U7G U8G G9U U10A C12G C13A | 1.07
U7G U8C G9C U10C C12A C13U | 1.04
U8G U11C C13A | 1.19
U7C U10A U11G C13U | 1.28
U7G G9C | 2.85
U7A U8G G9A U10G U11G C12U | 1.32
U7G U8C U11C C12A C13G | 1.26
U7A U8G G9U U10G U11C C12A C13U | 1.16
U10A U11G C12G C13A | 1.27
U7A U8G G9C U10A U11G C12U C13U | 1.35
U7C U8C G9C U10G U11G C12G | 1.14
U7C U8G G9A U10G U11C | 1.06
U7C G9C U10A U11G C13G | 1.07
U7C U8C C12G C13A | 1.12
U7C U8C G9A U10C U11C C12G C13U | 1.29
U7A U8A G9A U10G U11C C12G C13A | 1.24
U7A U8C G9A C12G C13U | 1.2
U7C U8C G9U U10A C12G | 1.22
U7A G9C U10G U11G C12G C13A | 1.14
U8G G9A U11G C12A | 1.08
U7A U8G G9A U10G C12A C13U | 1.31
U7A U8C G9C U10C U11G | 1.03
G9U U10A U11G C12U C13G | 1.47

Variant | aptazyme ON/OFF ratio
U8G G9A U11C C12A | 1.34
U7G G9A U10C U11C C12U C13A | 1.05
U7G U8C G9C C12A C13G | 1.15
U7C U8G G9C U10G U11G C12G C13G | 1.09
U7C U8G G9U U10G U11G C12A C13U | 1.19
U7G G9U U11A C12G | 1.46
U7C U8C U10C C12G C13U | 1.2
U7G U8G U10G U11G C12U C13G | 1.13
U7G U8C C12G C13A | 1.08
U7A U8C G9A U10A U11C C12G C13U | 1.2
U7C G9U U11C C12A C13A | 1.15
U7C U8C G9A U10G U11A C12U C13G | 1.19
U7C U8G C12A C13G | 1.08
U7G U8C U10G C13G | 1.22
U7A U8C U10A U11C C12U C13U | 1.05
U7C G9C U10C U11A C12A C13A | 1.08
U8C G9C U11G C12G C13G | 1.12
U7C G9A U10C U11C C13A | 1.01
U7C G9A U10G C12A | 1.15
U7C U8G G9C U10G U11G | 1.23
U8G G9U U10A U11A C12A C13U | 1.22
U7G U8A G9A U10A U11A C13G | 1.06
U7A U8A G9U U10A U11C C12A C13A | 1.11
U7G U8G G9A U10A U11A C12G C13G | 1.1

Variant | aptazyme ON/OFF ratio
U7C G9U U10A C12G C13U | 1.27
U7A U11A | 1.24
U7C U8G G9C U10A U11G C12G C13U | 1.18
U7A G9A U10C U11A C13A | 1.15
G9U C13A | 1.34
U7C G9C U10G U11G C12G | 1.12
U7G U8A G9U U10A U11A C12U C13G | 1.07
U7A U8G G9C U10G C12G C13A | 1.3
U11A C13A | 1.26
U7A U8G G9A U10G U11G C12G C13A | 0.971
U7G U8A G9A U10C U11A C12A C13A | 1.2
U7C U8C G9U U10C U11A C12G | 1.34
U10C U11G C12G | 1.25
U7C U8A G9A U10C U11A C12G | 1.14
U7A G9U U10A U11A C12G C13U | 1.19
U7A G9C U10G U11C C12G C13G | 1.21
U7C U8G G9A U10A U11C C12A C13U | 1.17
U7G C12A C13G | 1.11
U7A U8G G9U U10A C12G C13A | 1.09
U7G U8A G9U U10G U11A C13A | 1.06
U7C U8A G9A U10C U11A C13A | 1.2
G9A U10C C13G | 1.03
U8G U10G C12A C13G | 1.19
U7C U8G G9U U10C U11C C12G C13U | 1.04

Variant | aptazyme ON/OFF ratio
U7C U10G U11C C13A | 1.08
U7C U8G U10C U11A C12A | 2.52
U7G U8G U10G U11A C12G | 1.43
U7A U8G U11G C12G C13G | 1.32
U7C U8A G9C U10C U11G C13A | 1.1
U7G U8G G9A U10C U11C C12U C13G | 1.36
U7A U8C G9C U10A U11G C13G | 1.12
U8G U10A U11C C12G C13A | 1.13
U7C U8G G9C U10G C12A | 1.21
U8A G9A U10C U11C C13G | 1.03
U7G U8C G9C U10G U11A C12A C13U | 1.25
U7A U8A U10A U11A C13G | 1.18
U7A U8C G9C U10C C12U C13A | 1.04
U8C U10G U11A C12U C13G | 1.12
C12G C13U | 1.36
U8A G9U U10A U11C C12U C13G | 1.22
U7C U8A U10C U11G C12G C13U | 1.08
U8G G9U U10A U11C C12U C13U | 1.05
U8C G9C U10G U11A C12A | 1.21
U10A U11G C13A | 1.33
U7G U8C C12G C13U | 1.19
U8A G9C U10A U11G C12G C13A | 1.15
U7G U8C G9U U10G U11G C13A | 1.22
U7C U8C G9U U10C U11C C13U | 1.04

Variant | aptazyme ON/OFF ratio
U7A U8A G9C U10C C12A C13G | 1.04
U7G U8A G9A U11C C13U | 1.06
U10A U11G C12G C13U | 1.43
U7G U8C G9A U10G C12A | 1.18
U7G U8A G9U U10C U11G C12G C13A | 1.07
U7G G9U U10A U11C C12G C13G | 1.04
U7A U8C G9U U10G U11A C12A C13G | 1.13
U7C U8A U10A U11C C13A | 1.03
U7C U8C U10G U11C C12U C13U | 1.29
U8C G9A U10G C12A C13A | 1.27
U7A G9C U10C U11C C12U C13U | 0.994
U11C C12G C13G | 1.49
U7G U8G U11C C12G C13A | 1.33
U7C G9U U10A U11A C12G | 1.29
U7C U8G G9C U10G U11C C12U C13A | 1.26
U7G U8A G9C U10G U11G C12A C13U | 1.03
U7A U8A U11G C12A C13A | 1.15
U7A U8G G9C U10C U11C C12G | 1.05
U7A U8C G9A U10A C12A C13U | 1.36
U8G U10G U11C | 1.05
U7A G9A U10G U11G C12G C13U | 1.16
U8A G9A U10C U11A C13A | 1.11
U7C U8A U11G C12U C13G | 1.13
